Source: patent publication US20180155451A1 (published 2018)

What follows are binders tested against T1, FcγRIa (human, UniProt P12314 16-292) (assay: SPR; vs GpH7-B3/GpL16-k0=100).
T1 construct: extracellular domain; also called FcgRI; CD64
T1 sequence (P12314 16-292): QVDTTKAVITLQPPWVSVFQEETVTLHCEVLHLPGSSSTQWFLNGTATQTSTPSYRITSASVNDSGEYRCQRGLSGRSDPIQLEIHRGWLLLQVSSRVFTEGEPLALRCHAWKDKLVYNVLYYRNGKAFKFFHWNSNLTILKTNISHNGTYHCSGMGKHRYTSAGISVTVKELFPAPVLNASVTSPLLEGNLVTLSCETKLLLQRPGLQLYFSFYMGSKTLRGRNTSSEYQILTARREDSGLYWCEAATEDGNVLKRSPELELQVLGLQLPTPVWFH

Ho/Con_1a	Binder
105 % of control	GpH7-B3 variant H268_12R/GpL16-k0 (antibody, human IgG1, kappa, homodimerized; also called Ho Ab H268_12R) heavy: not shown light: DIVMTQSPLSLPVTPGEPASISCQASESLVHSNRNTYLHWYLQKPGQSPQLLIYKVSNRFSGVPDRFSGSGSGTDFTLKISRVEAEDVGVYYCSQNTHVPPTFGQGTKVEIERTVAAPSVFIFPPSDEQLKSGTASVVCLLNNFYPREAKVQWKVDNALQSGNSQESVTEQDSKDSTYSLSSTLTLSKADYEKHKVYACEVTHQGLSSPVTKSFNRGEC
107 % of control	GpH7-B3 variant K334_10E/GpL16-k0 (antibody, human IgG1, kappa, homodimerized; also called Ho Ab K334_10E) heavy: not shown light: DIVMTQSPLSLPVTPGEPASISCQASESLVHSNRNTYLHWYLQKPGQSPQLLIYKVSNRFSGVPDRFSGSGSGTDFTLKISRVEAEDVGVYYCSQNTHVPPTFGQGTKVEIERTVAAPSVFIFPPSDEQLKSGTASVVCLLNNFYPREAKVQWKVDNALQSGNSQESVTEQDSKDSTYSLSSTLTLSKADYEKHKVYACEVTHQGLSSPVTKSFNRGEC
104 % of control	GpH7-B3 variant K334_20W/GpL16-k0 (antibody, human IgG1, kappa, homodimerized; also called Ho Ab K334_20W) heavy: not shown light: DIVMTQSPLSLPVTPGEPASISCQASESLVHSNRNTYLHWYLQKPGQSPQLLIYKVSNRFSGVPDRFSGSGSGTDFTLKISRVEAEDVGVYYCSQNTHVPPTFGQGTKVEIERTVAAPSVFIFPPSDEQLKSGTASVVCLLNNFYPREAKVQWKVDNALQSGNSQESVTEQDSKDSTYSLSSTLTLSKADYEKHKVYACEVTHQGLSSPVTKSFNRGEC
102 % of control	GpH7-B3 variant K334_12R/GpL16-k0 (antibody, human IgG1, kappa, homodimerized; also called Ho Ab K334_12R) heavy: not shown light: DIVMTQSPLSLPVTPGEPASISCQASESLVHSNRNTYLHWYLQKPGQSPQLLIYKVSNRFSGVPDRFSGSGSGTDFTLKISRVEAEDVGVYYCSQNTHVPPTFGQGTKVEIERTVAAPSVFIFPPSDEQLKSGTASVVCLLNNFYPREAKVQWKVDNALQSGNSQESVTEQDSKDSTYSLSSTLTLSKADYEKHKVYACEVTHQGLSSPVTKSFNRGEC
102 % of control	GpH7-B3 variant K326_18N/GpL16-k0 (antibody, human IgG1, kappa, homodimerized; also called Ho Ab K326_18N) heavy: not shown light: DIVMTQSPLSLPVTPGEPASISCQASESLVHSNRNTYLHWYLQKPGQSPQLLIYKVSNRFSGVPDRFSGSGSGTDFTLKISRVEAEDVGVYYCSQNTHVPPTFGQGTKVEIERTVAAPSVFIFPPSDEQLKSGTASVVCLLNNFYPREAKVQWKVDNALQSGNSQESVTEQDSKDSTYSLSSTLTLSKADYEKHKVYACEVTHQGLSSPVTKSFNRGEC
101 % of control	GpH7-B3 variant K326_16H/GpL16-k0 (antibody, human IgG1, kappa, homodimerized; also called Ho Ab K326_16H) heavy: not shown light: DIVMTQSPLSLPVTPGEPASISCQASESLVHSNRNTYLHWYLQKPGQSPQLLIYKVSNRFSGVPDRFSGSGSGTDFTLKISRVEAEDVGVYYCSQNTHVPPTFGQGTKVEIERTVAAPSVFIFPPSDEQLKSGTASVVCLLNNFYPREAKVQWKVDNALQSGNSQESVTEQDSKDSTYSLSSTLTLSKADYEKHKVYACEVTHQGLSSPVTKSFNRGEC
103 % of control	GpH7-B3 variant K326_14T/GpL16-k0 (antibody, human IgG1, kappa, homodimerized; also called Ho Ab K326_14T) heavy: not shown light: DIVMTQSPLSLPVTPGEPASISCQASESLVHSNRNTYLHWYLQKPGQSPQLLIYKVSNRFSGVPDRFSGSGSGTDFTLKISRVEAEDVGVYYCSQNTHVPPTFGQGTKVEIERTVAAPSVFIFPPSDEQLKSGTASVVCLLNNFYPREAKVQWKVDNALQSGNSQESVTEQDSKDSTYSLSSTLTLSKADYEKHKVYACEVTHQGLSSPVTKSFNRGEC

Second part, the binder before the results:

Binder	Ho/Con_1a
GpH7-B3 variant H268_08L/GpL16-k0 (antibody, human IgG1, kappa, homodimerized; also called Ho Ab H268_08L) heavy: not shown light: DIVMTQSPLSLPVTPGEPASISCQASESLVHSNRNTYLHWYLQKPGQSPQLLIYKVSNRFSGVPDRFSGSGSGTDFTLKISRVEAEDVGVYYCSQNTHVPPTFGQGTKVEIERTVAAPSVFIFPPSDEQLKSGTASVVCLLNNFYPREAKVQWKVDNALQSGNSQESVTEQDSKDSTYSLSSTLTLSKADYEKHKVYACEVTHQGLSSPVTKSFNRGEC	105 % of control
GpH7-B3 variant K326_12R/GpL16-k0 (antibody, human IgG1, kappa, homodimerized; also called Ho Ab K326_12R) heavy: not shown light: DIVMTQSPLSLPVTPGEPASISCQASESLVHSNRNTYLHWYLQKPGQSPQLLIYKVSNRFSGVPDRFSGSGSGTDFTLKISRVEAEDVGVYYCSQNTHVPPTFGQGTKVEIERTVAAPSVFIFPPSDEQLKSGTASVVCLLNNFYPREAKVQWKVDNALQSGNSQESVTEQDSKDSTYSLSSTLTLSKADYEKHKVYACEVTHQGLSSPVTKSFNRGEC	100 % of control
GpH7-B3 variant I336_01G/GpL16-k0 (antibody, human IgG1, kappa, homodimerized; also called Ho Ab I336_01G) heavy: not shown light: DIVMTQSPLSLPVTPGEPASISCQASESLVHSNRNTYLHWYLQKPGQSPQLLIYKVSNRFSGVPDRFSGSGSGTDFTLKISRVEAEDVGVYYCSQNTHVPPTFGQGTKVEIERTVAAPSVFIFPPSDEQLKSGTASVVCLLNNFYPREAKVQWKVDNALQSGNSQESVTEQDSKDSTYSLSSTLTLSKADYEKHKVYACEVTHQGLSSPVTKSFNRGEC	104 % of control
GpH7-B3 variant I336_02A/GpL16-k0 (antibody, human IgG1, kappa, homodimerized; also called Ho Ab I336_02A) heavy: not shown light: DIVMTQSPLSLPVTPGEPASISCQASESLVHSNRNTYLHWYLQKPGQSPQLLIYKVSNRFSGVPDRFSGSGSGTDFTLKISRVEAEDVGVYYCSQNTHVPPTFGQGTKVEIERTVAAPSVFIFPPSDEQLKSGTASVVCLLNNFYPREAKVQWKVDNALQSGNSQESVTEQDSKDSTYSLSSTLTLSKADYEKHKVYACEVTHQGLSSPVTKSFNRGEC	103 % of control
GpH7-B3 variant I336_18N/GpL16-k0 (antibody, human IgG1, kappa, homodimerized; also called Ho Ab I336_18N) heavy: not shown light: DIVMTQSPLSLPVTPGEPASISCQASESLVHSNRNTYLHWYLQKPGQSPQLLIYKVSNRFSGVPDRFSGSGSGTDFTLKISRVEAEDVGVYYCSQNTHVPPTFGQGTKVEIERTVAAPSVFIFPPSDEQLKSGTASVVCLLNNFYPREAKVQWKVDNALQSGNSQESVTEQDSKDSTYSLSSTLTLSKADYEKHKVYACEVTHQGLSSPVTKSFNRGEC	104 % of control
GpH7-B3 variant H268_14T/GpL16-k0 (antibody, human IgG1, kappa, homodimerized; also called Ho Ab H268_14T) heavy: not shown light: DIVMTQSPLSLPVTPGEPASISCQASESLVHSNRNTYLHWYLQKPGQSPQLLIYKVSNRFSGVPDRFSGSGSGTDFTLKISRVEAEDVGVYYCSQNTHVPPTFGQGTKVEIERTVAAPSVFIFPPSDEQLKSGTASVVCLLNNFYPREAKVQWKVDNALQSGNSQESVTEQDSKDSTYSLSSTLTLSKADYEKHKVYACEVTHQGLSSPVTKSFNRGEC	109 % of control
GpH7-B3 variant H268_20W/GpL16-k0 (antibody, human IgG1, kappa, homodimerized; also called Ho Ab H268_20W) heavy: not shown light: DIVMTQSPLSLPVTPGEPASISCQASESLVHSNRNTYLHWYLQKPGQSPQLLIYKVSNRFSGVPDRFSGSGSGTDFTLKISRVEAEDVGVYYCSQNTHVPPTFGQGTKVEIERTVAAPSVFIFPPSDEQLKSGTASVVCLLNNFYPREAKVQWKVDNALQSGNSQESVTEQDSKDSTYSLSSTLTLSKADYEKHKVYACEVTHQGLSSPVTKSFNRGEC	106 % of control
GpH7-B3 variant L234_04F/GpL16-k0 (antibody, human IgG1, kappa, homodimerized; also called Ho Ab L234_04F) heavy: not shown light: DIVMTQSPLSLPVTPGEPASISCQASESLVHSNRNTYLHWYLQKPGQSPQLLIYKVSNRFSGVPDRFSGSGSGTDFTLKISRVEAEDVGVYYCSQNTHVPPTFGQGTKVEIERTVAAPSVFIFPPSDEQLKSGTASVVCLLNNFYPREAKVQWKVDNALQSGNSQESVTEQDSKDSTYSLSSTLTLSKADYEKHKVYACEVTHQGLSSPVTKSFNRGEC	93.5 % of control
GpH7-B3 variant K334_06M/GpL16-k0 (antibody, human IgG1, kappa, homodimerized; also called Ho Ab K334_06M) heavy: not shown light: DIVMTQSPLSLPVTPGEPASISCQASESLVHSNRNTYLHWYLQKPGQSPQLLIYKVSNRFSGVPDRFSGSGSGTDFTLKISRVEAEDVGVYYCSQNTHVPPTFGQGTKVEIERTVAAPSVFIFPPSDEQLKSGTASVVCLLNNFYPREAKVQWKVDNALQSGNSQESVTEQDSKDSTYSLSSTLTLSKADYEKHKVYACEVTHQGLSSPVTKSFNRGEC	104 % of control
GpH7-B3 variant I336_04F/GpL16-k0 (antibody, human IgG1, kappa, homodimerized; also called Ho Ab I336_04F) heavy: not shown light: DIVMTQSPLSLPVTPGEPASISCQASESLVHSNRNTYLHWYLQKPGQSPQLLIYKVSNRFSGVPDRFSGSGSGTDFTLKISRVEAEDVGVYYCSQNTHVPPTFGQGTKVEIERTVAAPSVFIFPPSDEQLKSGTASVVCLLNNFYPREAKVQWKVDNALQSGNSQESVTEQDSKDSTYSLSSTLTLSKADYEKHKVYACEVTHQGLSSPVTKSFNRGEC	104 % of control
GpH7-B3 variant K326_15Y/GpL16-k0 (antibody, human IgG1, kappa, homodimerized; also called Ho Ab K326_15Y) heavy: not shown light: DIVMTQSPLSLPVTPGEPASISCQASESLVHSNRNTYLHWYLQKPGQSPQLLIYKVSNRFSGVPDRFSGSGSGTDFTLKISRVEAEDVGVYYCSQNTHVPPTFGQGTKVEIERTVAAPSVFIFPPSDEQLKSGTASVVCLLNNFYPREAKVQWKVDNALQSGNSQESVTEQDSKDSTYSLSSTLTLSKADYEKHKVYACEVTHQGLSSPVTKSFNRGEC	101 % of control
GpH7-B3 variant I336_06M/GpL16-k0 (antibody, human IgG1, kappa, homodimerized; also called Ho Ab I336_06M) heavy: not shown light: DIVMTQSPLSLPVTPGEPASISCQASESLVHSNRNTYLHWYLQKPGQSPQLLIYKVSNRFSGVPDRFSGSGSGTDFTLKISRVEAEDVGVYYCSQNTHVPPTFGQGTKVEIERTVAAPSVFIFPPSDEQLKSGTASVVCLLNNFYPREAKVQWKVDNALQSGNSQESVTEQDSKDSTYSLSSTLTLSKADYEKHKVYACEVTHQGLSSPVTKSFNRGEC	104 % of control
GpH7-B3 variant I332_12R/GpL16-k0 (antibody, human IgG1, kappa, homodimerized; also called Ho Ab I332_12R) heavy: not shown light: DIVMTQSPLSLPVTPGEPASISCQASESLVHSNRNTYLHWYLQKPGQSPQLLIYKVSNRFSGVPDRFSGSGSGTDFTLKISRVEAEDVGVYYCSQNTHVPPTFGQGTKVEIERTVAAPSVFIFPPSDEQLKSGTASVVCLLNNFYPREAKVQWKVDNALQSGNSQESVTEQDSKDSTYSLSSTLTLSKADYEKHKVYACEVTHQGLSSPVTKSFNRGEC	93.2 % of control
GpH7-B3 variant I336_10E/GpL16-k0 (antibody, human IgG1, kappa, homodimerized; also called Ho Ab I336_10E) heavy: not shown light: DIVMTQSPLSLPVTPGEPASISCQASESLVHSNRNTYLHWYLQKPGQSPQLLIYKVSNRFSGVPDRFSGSGSGTDFTLKISRVEAEDVGVYYCSQNTHVPPTFGQGTKVEIERTVAAPSVFIFPPSDEQLKSGTASVVCLLNNFYPREAKVQWKVDNALQSGNSQESVTEQDSKDSTYSLSSTLTLSKADYEKHKVYACEVTHQGLSSPVTKSFNRGEC	107 % of control
GpH7-B3 variant L234_03V/GpL16-k0 (antibody, human IgG1, kappa, homodimerized; also called Ho Ab L234_03V) heavy: not shown light: DIVMTQSPLSLPVTPGEPASISCQASESLVHSNRNTYLHWYLQKPGQSPQLLIYKVSNRFSGVPDRFSGSGSGTDFTLKISRVEAEDVGVYYCSQNTHVPPTFGQGTKVEIERTVAAPSVFIFPPSDEQLKSGTASVVCLLNNFYPREAKVQWKVDNALQSGNSQESVTEQDSKDSTYSLSSTLTLSKADYEKHKVYACEVTHQGLSSPVTKSFNRGEC	98.2 % of control
GpH7-B3 variant I336_03V/GpL16-k0 (antibody, human IgG1, kappa, homodimerized; also called Ho Ab I336_03V) heavy: not shown light: DIVMTQSPLSLPVTPGEPASISCQASESLVHSNRNTYLHWYLQKPGQSPQLLIYKVSNRFSGVPDRFSGSGSGTDFTLKISRVEAEDVGVYYCSQNTHVPPTFGQGTKVEIERTVAAPSVFIFPPSDEQLKSGTASVVCLLNNFYPREAKVQWKVDNALQSGNSQESVTEQDSKDSTYSLSSTLTLSKADYEKHKVYACEVTHQGLSSPVTKSFNRGEC	105 % of control
